According to patent US20160355591A1 (published 2016):

Experiments:
[1] = biological target: T1, HLA-DR (human leukocyte antigen-DR) on human lymphoma and leukemia cells and human lymphocytes (human, UniProt P01903 26-254; P01911 30-266); test: competition cell-binding assay on human lymphoma cells; reference mL243
T1 construct: whole, on cells; Natural antigen on Raji, Daudi, Ramos, Namalwa and other cell lines; also called cell surface antigen (Ag) recognized by L243
Method: (§1) Unbound Abs were removed by washing the cells in PBS. The radioactivity associated with cells was determined after washing.

[2] = biological target: T1, HLA-DR (human leukocyte antigen-DR) on …; test: competition cell-binding assay, unlabeled antibody against 125I-labeled L243 antibody on human lymphoma cells (FIG. 6: Raji)
Method: as §1

[3] = biological target: T1, HLA-DR (human leukocyte antigen-DR) on …; test: direct cell surface saturation binding of 125I-labeled antibody to Daudi cells, 4 C, Scatchard plot; apparent dissociation constant
Method: The cell-associated radioactivity was counted, specific binding of radiolabeled antibody to the cell surface antigen calculated, and Scatchard plot analysis was then applied to determine the maximum number of binding sites per cell and the apparent antigen-binding affinity constant.
To measure specific cell surface antigen binding, two sets of cells were prepared and used in the binding assay to estimate the non-specific and total binding of radioactivities, respectively. The cells for non-specific binding were pre-incubated with excess amount of unlabled Ab to block all surface antigen sites prior to adding the radiolabeled antibody, while those for total binding were pre-incubated in PBS. […] The cell-associated radioactivity was counted. The specific cell surface binding of the radiolabeled antibody at a given concentration of radiolabeled antibody was calculated as: the counts of total binding minus the counts of non-specific binding.

Binder | fold stronger binding avidity than mL243 [1] [fold] | EC50 [2] [nM] | Kd [3] [nM]
hL243γ4P (IMMU-114; humanized L243, IgG4/K isotype with Ser241Pro hinge mutation) (antibody, V domains shown, Same V regions as hL243; also called hL243g4P; hL243gamma4P) VH: QVQLQQSGSELKKPGASVKVSCKASGFTFTNYGMNWVKQAPGQGLKWMGWINTYTREPTYADDFKGRFAFSLDTSVSTAYLQISSLKADDTAVYFCARDITAVVPTGFDYWGQGSLVTVSS VL: DIQLTQSPSSLSASVGDRVTITCRASENIYSNLAWYRQKPGKAPKLLVFAASNLADGVPSRFSGSGSGTDYTFTISSLQPEDIATYYCQHFWTTPWAFGGGTKLQIKR | ~2 | ~7 | 2.6
mL243 (murine L243 anti-HLA-DR monoclonal antibody, IgG2a, ATCC HB55) (antibody, V domains shown, Murine IgG2a from hybridoma ATCC HB55; also called mL234; L234) VH: QIQLVQSGPELKKPGETVKISCKASGFTFTNYGMNWVKQAPGKGLKWMGWINTYTREPTYADDFKGRFAFSLETSASTAYLQINNLKNEDTAKYFCARDITAVVPTGFDYWGQGTTLTVSS VL: DIQMTQSPASLSVSVGETVTITCRASENIYSNLAWYRQKQGKSPQLLVFAASNLADGVPSRFSGSGSGTQYSLKINSLQSEDFGDYYCQHFWTTPWAFGGGTNLEIKR |  | ~16.5 | 14
